Experimental data reported in patent publication US20200079855A1 (Pfizer, published 2020).

Experiments:
[1] = biological target: T1, human αvβ8 integrin on U251 cells (human, UniProt P06756 31-1048)
[2] = biological target: T1, human αvβ8 integrin on U251 cells; experiment: cell-based or functional assay
[3] = biological target: T1, human αvβ8 integrin on U251 cells; experiment: flow cytometry on U251 cells
[4] = biological target: T2, mouse αvβ8 integrin on C8-S cells (mouse, UniProt P43406 31-1044; Q0VBD0 22-767); experiment: flow cytometry on C8-S cells
T2 construct: Endogenous αvβ8 of C8-S mouse astrocyte cells; also called C8-S (mouse astrocyte); C8-S (mouse avb8)
Procedure: (§1) 100,000 cells were incubated with a dilution series of the anti-αvβ8 or human IgG1_3 mut Isotype antibody for three to four hours on ice. The cells were spun down for five minutes at 300 g force. The cells were then washed three times with wash buffer (PBS+0.2% BSA) to remove excess unbound antibodies. After thorough washing, cells were incubated with Fab′2 anti-human Fc-PE (Invitrogen) or goat Fab′2 anti-mouse-APC (Jackson Labs) at 1:1000 dilution along with LIVE/DEAD fixable cell stain (Invitrogen) at 1:2000 to distinguish live cells. The whole content was incubated for 30 minutes on ice. After washing, the stained cells were analyzed on BD biosciences Fortessa flow cytometer (gated for live cells) using FlowJo analysis software. The mean fluorescence intensities (MFI) at different antibody concentrations were plotted for various antibodies.
(§2) The apparent-affinity of ADWA11 2.4 for U251 (human glioblastoma) or C8-S (mouse astrocyte) cells was also evaluated in a cell-binding assay, according to the methods as generally described herein. Briefly, cells were incubated with a serial dilution of ADWA11 2.4 for 4 hours on ice, followed by detection on bound antibody with an anti-human-PE secondary antibody, and analyzed by flow cytometry.

[5] = biological target: T2, mouse αvβ8 integrin on C8-S cells; experiment: cell-based or functional assay
[6] = biological target: T3, recombinant human αvβ3 integrin (human, UniProt P06756 31-992; P05106 27-718); experiment: SPR (Biacore), recombinant integrin immobilised
T3 construct: Used in ELISA and immobilised on the Biacore chip; construct not described; also called hαvβ3; AVB3
Procedure: (§3) To evaluate the specificity of ADWA11 2.4, recombinant human αvβ6 and αvβ3 were immobilized on a Biacore chip and binding of the parental murine and humanized mAb variant of ADWA11 2.4 was determined.

[7] = biological target: T4, recombinant human αvβ6 integrin (human, UniProt P06756 31-992; P18564 22-707); experiment: SPR (Biacore), recombinant integrin immobilised
T4 construct: Used in ELISA and immobilised on the Biacore chip; construct not described; also called hαvβ6; AVB6
Procedure: as §3

[8] = biological target: T1, human αvβ8 integrin on U251 cells; experiment: flow cytometry on live U251 cells, 4 hours on ice, anti-human-PE secondary, n=3
[9] = biological target: T5, human αvβ8 integrin on HEK293-F cells (human, UniProt P06756 31-1048; P26012 43-769); experiment: flow cytometry, titration on HEK cells overexpressing human integrin β8, right panel
T5 construct: whole, on cells; HEK293-F cells transiently expressing the full length beta subunit; also called HEK cells expressing αvβ8
Procedure: (§4) For cell-binding experiments with HEK293-F cells overexpressing human αvβ3, αvβ5, αvβ6, αvβ8. HEK293-F cells transiently expressing full length human integrin beta 3 (Accession No. NP_000203.2), human integrin beta 5 (Accession No. NP_002204.2), human integrin beta 6 (Accession No. NP_000879.2), or human integrin beta 8 (Accession No. NP_002205.1) were prepared using proprietary vectors and vendor provided protocols. Cells were harvested after 4 days and analyzed for integrin expression. To characterize Integrin αvβ3, αvβ5, αvβ6, αvβ8 expression 100,000 cells were incubated in the indicated commercially available or directly conjugated proprietary antibodies for 30 minutes, along with LIVE/DEAD fixable cell stain (Invitrogen) at 1:2000 to distinguish live cells. Cells were spun down for five minutes at 300 g force. The cells were then washed twice with wash buffer (PBS+0.2% BSA) to remove excess unbound antibodies and ananalysed on BD biosciences Fortessa flow cytometer
(§5) 100,000 cells were incubated with a dilution series of the anti-αvβ8 or human IgG1_3 mut Isotype antibody for three to four hours on ice. […] After washing, the stained cells were analyzed on BD biosciences Fortessa flow cytometer (gated for live cells) using FlowJo analysis software. The mean fluorescence intensities (MFI) at different antibody concentrations were plotted for various antibodies.

[10] = biological target: T6, human αvβ3 integrin on HEK293-F cells (human, UniProt P06756 31-1048; P05106 27-788); experiment: flow cytometry, titration of ADWA11 2.4 on HEK cells overexpressing human integrin β3 (gMFI minus secondary), right panel
T6 construct: whole, on cells; HEK293-F cells transiently expressing the full length beta subunit; also called HEK cells expressing αvβ3
Procedure: as §4, §5

[11] = biological target: T7, human αvβ5 integrin on HEK293-F cells (human, UniProt P06756 31-1048; P18084 24-799); experiment: flow cytometry, titration of ADWA11 2.4 on HEK cells overexpressing human integrin β5 (gMFI minus secondary), right panel
T7 construct: whole, on cells; HEK293-F cells transiently expressing the full length beta subunit; also called HEK cells expressing αvβ5
Procedure: as §4, §5

[12] = biological target: T8, human αvβ6 integrin on HEK293-F cells (human, UniProt P06756 31-1048; P18564 22-788); experiment: flow cytometry, titration of ADWA11 2.4 on HEK cells overexpressing human integrin β6 (gMFI minus secondary), right panel
T8 construct: whole, on cells; HEK293-F cells transiently expressing the full length beta subunit; also called HEK cells expressing αvβ6
Procedure: as §4, §5

[13] = biological target: T1, human αvβ8 integrin on U251 cells; experiment: flow cytometry, IgG binding to U251 cells (MFI PE-A), left panel ADWA11_IgG_U251 cell binding; EC50 unit inferred, axis Log10 [mAb] nM
[14] = biological target: T2, mouse αvβ8 integrin on C8-S cells; experiment: flow cytometry, IgG binding to C8-S cells (MFI PE-A), right panel ADWA11_IgG_C8-S cell binding; EC50 unit inferred, axis Log10 [mAb] nM
Procedure: as §1, §2

T2 sequence (P43406 31-1044 limits assumed, chain 1 of 2): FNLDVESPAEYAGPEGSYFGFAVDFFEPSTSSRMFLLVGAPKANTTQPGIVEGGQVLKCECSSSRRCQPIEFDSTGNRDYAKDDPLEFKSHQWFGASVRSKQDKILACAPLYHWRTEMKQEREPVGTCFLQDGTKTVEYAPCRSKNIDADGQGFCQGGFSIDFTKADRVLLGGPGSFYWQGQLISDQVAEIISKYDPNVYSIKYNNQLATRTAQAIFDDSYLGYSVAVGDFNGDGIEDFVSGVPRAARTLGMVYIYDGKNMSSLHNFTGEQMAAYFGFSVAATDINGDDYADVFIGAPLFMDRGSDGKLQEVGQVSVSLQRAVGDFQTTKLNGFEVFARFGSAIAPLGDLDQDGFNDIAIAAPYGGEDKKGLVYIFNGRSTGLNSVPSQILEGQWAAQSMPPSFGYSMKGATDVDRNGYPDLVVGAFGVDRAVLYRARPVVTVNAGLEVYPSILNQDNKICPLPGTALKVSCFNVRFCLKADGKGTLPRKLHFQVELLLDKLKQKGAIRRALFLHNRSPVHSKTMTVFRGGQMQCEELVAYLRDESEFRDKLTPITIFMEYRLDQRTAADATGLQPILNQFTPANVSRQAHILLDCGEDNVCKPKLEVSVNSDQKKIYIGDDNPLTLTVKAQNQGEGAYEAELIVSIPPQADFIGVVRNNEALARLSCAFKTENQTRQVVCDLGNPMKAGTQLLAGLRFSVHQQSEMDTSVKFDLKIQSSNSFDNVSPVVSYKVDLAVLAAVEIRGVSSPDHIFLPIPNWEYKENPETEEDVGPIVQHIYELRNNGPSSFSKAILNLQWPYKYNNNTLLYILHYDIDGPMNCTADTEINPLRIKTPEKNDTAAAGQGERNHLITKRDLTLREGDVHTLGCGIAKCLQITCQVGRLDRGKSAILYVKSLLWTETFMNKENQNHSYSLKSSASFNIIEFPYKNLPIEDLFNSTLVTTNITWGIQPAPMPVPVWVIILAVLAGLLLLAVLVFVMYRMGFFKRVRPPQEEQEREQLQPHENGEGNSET
T2 sequence (Q0VBD0 22-767 limits assumed, chain 2 of 2): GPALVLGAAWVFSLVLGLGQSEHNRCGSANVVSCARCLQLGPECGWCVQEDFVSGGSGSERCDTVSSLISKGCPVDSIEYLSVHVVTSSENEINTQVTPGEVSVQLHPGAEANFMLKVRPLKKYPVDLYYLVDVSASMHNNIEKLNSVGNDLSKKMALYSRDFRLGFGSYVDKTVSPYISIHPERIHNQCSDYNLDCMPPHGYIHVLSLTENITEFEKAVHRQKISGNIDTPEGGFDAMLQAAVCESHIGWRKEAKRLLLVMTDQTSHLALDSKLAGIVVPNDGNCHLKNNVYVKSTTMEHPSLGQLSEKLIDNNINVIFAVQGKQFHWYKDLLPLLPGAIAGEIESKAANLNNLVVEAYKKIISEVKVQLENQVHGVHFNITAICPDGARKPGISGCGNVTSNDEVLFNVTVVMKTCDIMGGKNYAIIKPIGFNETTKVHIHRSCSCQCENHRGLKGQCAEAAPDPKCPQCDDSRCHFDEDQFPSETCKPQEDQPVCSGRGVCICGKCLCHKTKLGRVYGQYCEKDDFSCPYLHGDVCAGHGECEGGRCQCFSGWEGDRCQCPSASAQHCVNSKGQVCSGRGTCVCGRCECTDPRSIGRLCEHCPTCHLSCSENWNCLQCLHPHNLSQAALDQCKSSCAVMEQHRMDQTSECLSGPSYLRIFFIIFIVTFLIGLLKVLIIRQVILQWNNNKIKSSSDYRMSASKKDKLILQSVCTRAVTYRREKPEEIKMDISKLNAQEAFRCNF
T3 sequence (P06756 31-992 limits assumed, chain 1 of 2): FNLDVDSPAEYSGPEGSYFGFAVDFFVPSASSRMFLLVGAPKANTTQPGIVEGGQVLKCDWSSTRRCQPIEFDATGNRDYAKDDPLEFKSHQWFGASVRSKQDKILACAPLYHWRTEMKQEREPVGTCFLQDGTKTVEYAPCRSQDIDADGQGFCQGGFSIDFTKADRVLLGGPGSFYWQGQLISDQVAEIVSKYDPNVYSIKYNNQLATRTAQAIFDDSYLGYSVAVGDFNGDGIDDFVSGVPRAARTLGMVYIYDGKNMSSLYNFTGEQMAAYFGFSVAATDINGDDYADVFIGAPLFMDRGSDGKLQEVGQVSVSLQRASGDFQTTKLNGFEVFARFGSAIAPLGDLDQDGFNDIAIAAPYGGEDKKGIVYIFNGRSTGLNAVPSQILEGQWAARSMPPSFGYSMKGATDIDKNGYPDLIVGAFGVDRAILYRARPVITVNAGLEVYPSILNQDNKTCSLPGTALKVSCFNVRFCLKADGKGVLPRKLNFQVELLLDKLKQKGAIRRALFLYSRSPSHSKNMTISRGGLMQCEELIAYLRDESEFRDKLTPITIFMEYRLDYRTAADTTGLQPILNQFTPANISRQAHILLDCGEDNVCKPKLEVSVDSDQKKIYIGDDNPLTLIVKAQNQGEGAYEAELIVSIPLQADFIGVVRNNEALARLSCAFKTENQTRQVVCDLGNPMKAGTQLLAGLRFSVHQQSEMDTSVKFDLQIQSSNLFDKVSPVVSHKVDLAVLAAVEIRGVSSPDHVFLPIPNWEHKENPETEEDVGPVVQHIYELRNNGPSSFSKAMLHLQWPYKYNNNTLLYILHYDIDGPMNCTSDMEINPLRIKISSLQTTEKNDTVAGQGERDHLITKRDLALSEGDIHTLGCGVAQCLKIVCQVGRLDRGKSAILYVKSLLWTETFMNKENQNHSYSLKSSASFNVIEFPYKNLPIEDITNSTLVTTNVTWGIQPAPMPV
T3 sequence (P05106 27-718 limits assumed, chain 2 of 2): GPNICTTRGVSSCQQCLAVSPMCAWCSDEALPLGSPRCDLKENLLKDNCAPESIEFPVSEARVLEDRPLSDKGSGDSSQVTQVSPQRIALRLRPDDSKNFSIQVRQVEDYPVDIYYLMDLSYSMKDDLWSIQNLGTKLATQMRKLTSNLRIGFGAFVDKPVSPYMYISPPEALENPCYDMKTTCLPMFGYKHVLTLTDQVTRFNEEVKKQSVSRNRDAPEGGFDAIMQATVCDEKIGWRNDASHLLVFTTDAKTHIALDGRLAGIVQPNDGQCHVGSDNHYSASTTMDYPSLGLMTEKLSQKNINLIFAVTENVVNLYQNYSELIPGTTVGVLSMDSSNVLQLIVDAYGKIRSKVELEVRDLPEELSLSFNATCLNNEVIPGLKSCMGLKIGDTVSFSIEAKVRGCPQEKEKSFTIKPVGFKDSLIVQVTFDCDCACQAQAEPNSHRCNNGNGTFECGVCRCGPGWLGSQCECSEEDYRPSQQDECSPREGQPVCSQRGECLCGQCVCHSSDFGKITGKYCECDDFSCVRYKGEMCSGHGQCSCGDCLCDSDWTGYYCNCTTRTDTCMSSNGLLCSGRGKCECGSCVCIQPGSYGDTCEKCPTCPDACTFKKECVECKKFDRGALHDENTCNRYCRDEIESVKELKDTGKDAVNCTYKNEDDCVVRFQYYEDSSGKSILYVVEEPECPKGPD
T4 sequence (P06756 31-992 limits assumed, chain 1 of 2): as the sequence (P06756 31-992 limits assumed, chain 1 of 2) above
T4 sequence (P18564 22-707 limits assumed, chain 2 of 2): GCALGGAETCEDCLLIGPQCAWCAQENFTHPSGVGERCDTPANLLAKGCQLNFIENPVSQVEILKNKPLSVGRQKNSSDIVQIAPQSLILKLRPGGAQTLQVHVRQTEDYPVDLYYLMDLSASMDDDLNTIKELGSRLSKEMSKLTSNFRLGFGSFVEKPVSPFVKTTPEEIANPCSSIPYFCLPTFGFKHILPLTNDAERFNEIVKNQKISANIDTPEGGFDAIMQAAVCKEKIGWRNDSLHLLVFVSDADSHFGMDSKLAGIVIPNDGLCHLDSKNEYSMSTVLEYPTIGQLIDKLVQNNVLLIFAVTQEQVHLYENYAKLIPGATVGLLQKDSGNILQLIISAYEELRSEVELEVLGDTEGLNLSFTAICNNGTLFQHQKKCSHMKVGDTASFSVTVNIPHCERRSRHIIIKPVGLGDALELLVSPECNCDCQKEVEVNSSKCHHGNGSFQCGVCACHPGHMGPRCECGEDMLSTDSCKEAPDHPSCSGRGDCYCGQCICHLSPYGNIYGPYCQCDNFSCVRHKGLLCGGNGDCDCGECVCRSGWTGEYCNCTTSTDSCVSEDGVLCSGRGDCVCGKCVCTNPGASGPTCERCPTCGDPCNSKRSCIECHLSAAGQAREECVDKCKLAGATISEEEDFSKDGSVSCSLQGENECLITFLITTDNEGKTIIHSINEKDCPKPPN

IC50 (read off the curve) [1]: 0.1 nM | IC50 in the TGFβ transactivation assay with U251 cells [2]: 0.199 nM | EC50 [3]: 0.256 nM | EC50 [4]: 0.145 nM | IC50 (read off the curve) [5]: ~0.2 nM | binding result [6]: no binding | binding result [7]: no binding | EC50 [8]: 0.126 nM | EC50 (read off the curve) [9]: ~2 nM | binding result [10]: no binding (tested: 100 nM) | binding result [11]: no binding (tested: 100 nM) | binding result [12]: no binding (tested: 100 nM) | EC50 [13]: 0.105 nM | EC50 [14]: 0.115 nM
B1: ADWA11 2.4 (IgG) (antibody, V domains shown)
VH: EVQLVESGGGLVQPGGSLRLSCAASGFNIKDYYMNWVRQAPGKGLEWVGWIDPDQGNTIYEPKFQGRFTISADTSKNSAYLQMNSLRAEDTAVYYCARRLLMDYWGQGTLVTVSS
VL: DIQMTQSPSSLSASVGDRVTITCRSTKSLSHFNGNTYLFWYQQKPGKAPKRLIYYMSSLASGVPSRFSGSGSGTDFTLTISSLQPEDFATYYCQQSLEYPFTFGGGTKVEIKR
notes: Human IgG1 effectorless (L234A, L235A, G237A), kappa; also called ADWA11 VH05-2/VK01(2.4); ADWA11_VH05-2_VK01(2.4)
